IntAct's records for PubMed 39009827

B1: Cell division control protein 45 homolog (Homo sapiens), O75419 (parent)
chain: MFVSDFRKEFYEVVQSQRVLLFVASDVDALCACKILQALFQCDHVQYTLVPVSGWQELETAFLEHKEQFHYFILINCGANVDLLDILQPDEDTIFFVCDTHRPVNVVNVYNDTQIKLLIKQDDDLEVPAYEDIFRDEEEDEEHSGNDSDGSEPSEKRTRLEEEIVEQTMRRRQRREWEARRRDILFDYEQYEYHGTSSAMVMFELAWMLSKDLNDMLWWAIVGLTDQWVQDKITQMKYVTDVGVLQRHVSRHNHRNEDEENTLSVDCTRISFEYDLRLVLYQHWSLHDSLCNTSYTAARFKLWSVHGQKRLQEFLADMGLPLKQVKQKFQAMDISLKENLREMIEESANKFGMKDMRVQTFSIHFGFKHKFLASDVVFATMSLMESPEKDGSGTDHFIQALDSLSRSNLDKLYHGLELAKKQLRATQQTIASCLCTNLVISQGPFLYCSLMEGTPDVMLFSRPASLSLLSKHLLKSFVCSTKNRRCKLLPLVMAAPLSMEHGTVTVVGIPPETDSSDRKNFFGRAFEKAAESTSSRMLHNHFDLSVIELKAEDRSKFLDALISLLS
B2: Fanconi anemia group A protein (Homo sapiens), O15360 (parent)
chain: MSDSWVPNSASGQDPGGRRRAWAELLAGRVKREKYNPERAQKLKESAVRLLRSHQDLNALLLEVEGPLCKKLSLSKVIDCDSSEAYANHSSSFIGSALQDQASRLGVPVGILSAGMVASSVGQICTAPAETSHPVLLTVEQRKKLSSLLEFAQYLLAHSMFSRLSFCQELWKIQSSLLLEAVWHLHVQGIVSLQELLESHPDMHAVGSWLFRNLCCLCEQMEASCQHADVARAMLSDFVQMFVLRGFQKNSDLRRTVEPEKMPQVTVDVLQRMLIFALDALAAGVQEESSTHKIVRCWFGVFSGHTLGSVISTDPLKRFFSHTLTQILTHSPVLKASDAVQMQREWSFARTHPLLTSLYRRLFVMLSAEELVGHLQEVLETQEVHWQRVLSFVSALVVCFPEAQQLLEDWVARLMAQAFESCQLDSMVTAFLVVRQAALEGPSAFLSYADWFKASFGSTRGYHGCSKKALVFLFTFLSELVPFESPRYLQVHILHPPLVPGKYRSLLTDYISLAKTRLADLKVSIENMGLYEDLSSAGDITEPHSQALQDVEKAIMVFEHTGNIPVTVMEASIFRRPYYVSHFLPALLTPRVLPKVPDSRVAFIESLKRADKIPPSLYSTYCQACSAAEEKPEDAALGVRAEPNSAEEPLGQLTAALGELRASMTDPSQRDVISAQVAVISERLRAVLGHNEDDSSVEISKIQLSINTPRLEPREHMAVDLLLTSFCQNLMAASSVAPPERQGPWAALFVRTMCGRVLPAVLTRLCQLLRHQGPSLSAPHVLGLAALAVHLGESRSALPEVDVGPPAPGAGLPVPALFDSLLTCRTRDSLFFCLKFCTAAISYSLCKFSSQSRDTLCSCLSPGLIKKFQFLMFRLFSEARQPLSEEDVASLSWRPLHLPSADWQRAALSLWTHRTFREVLKEEDVHLTYQDWLHLELEIQPEADALSDTERQDFHQWAIHEHFLPESSASGGCDGDLQAACTILVNALMDFHQSSRSYDHSENSDLVFGGRTGNEDIISRLQEMVADLELQQDLIVPLGHTPSQEHFLFEIFRRRLQALTSGWSVAASLQRQRELLMYKRILLRLPSSVLCGSSFQAEQPITARCEQFFHLVNSEMRNFCSHGGALTQDITAHFFRGLLNACLRSRDPSLMVDFILAKCQTKCPLILTSALVWWPSLEPVLLCRWRRHCQSPLPRELQKLQEGRQFASDFLSPEAASPAPNPDWLSAAALHFAIQQVREENIRKQLKKLDCEREELLVFLFFFSLMGLLSSHLTSNSTTDLPKAFHVCAAILECLEKRKISWLALFQLTESDLRLGRLLLRVAPDQHTRLLPFAFYSLLSYFHEDAAIREEAFLHVAVDMYLKLVQLFVAGDTSTVSPPAGRSLELKGQGNPVELITKARLFLLQLIPRCPKKSFSHVAELLADRGDCDPEVSAALQSRQQAAPDADLSQEPHLF
B3: Keratin, type II cytoskeletal 1 (Homo sapiens), P04264 (parent)
chain: MSRQFSSRSGYRSGGGFSSGSAGIINYQRRTTSSSTRRSGGGGGRFSSCGGGGGSFGAGGGFGSRSLVNLGGSKSISISVARGGGRGSGFGGGYGGGGFGGGGFGGGGFGGGGIGGGGFGGFGSGGGGFGGGGFGGGGYGGGYGPVCPPGGIQEVTINQSLLQPLNVEIDPEIQKVKSREREQIKSLNNQFASFIDKVRFLEQQNQVLQTKWELLQQVDTSTRTHNLEPYFESFINNLRRRVDQLKSDQSRLDSELKNMQDMVEDYRNKYEDEINKRTNAENEFVTIKKDVDGAYMTKVDLQAKLDNLQQEIDFLTALYQAELSQMQTQISETNVILSMDNNRSLDLDSIIAEVKAQYEDIAQKSKAEAESLYQSKYEELQITAGRHGDSVRNSKIEISELNRVIQRLRSEIDNVKKQISNLQQSISDAEQRGENALKDAKNKLNDLEDALQQAKEDLARLLRDYQELMNTKLALDLEIATYRTLLEGEESRMSGECAPNVSVSVSTSHTTISGGGSRGGGGGGYGSGGSSYGSGGGSYGSGGGGGGGRGSYGSGGSSYGSGGGSYGSGGGGGGHGSYGSGSSSGGYRGGSGGGGGGSSGGRGSGGGSSGGSIGGRGSSSGGVKSSGGSSSVKFVSTTYSGVTR
B4: Mitotic checkpoint serine/threonine-protein kinase BUB1 (Homo sapiens), O43683 (parent)
chain: MDTPENVLQMLEAHMQSYKGNDPLGEWERYIQWVEENFPENKEYLITLLEHLMKEFLDKKKYHNDPRFISYCLKFAEYNSDLHQFFEFLYNHGIGTLSSPLYIAWAGHLEAQGELQHASAVLQRGIQNQAEPREFLQQQYRLFQTRLTETHLPAQARTSEPLHNVQVLNQMITSKSNPGNNMACISKNQGSELSGVISSACDKESNMERRVITISKSEYSVHSSLASKVDVEQVVMYCKEKLIRGESEFSFEELRAQKYNQRRKHEQWVNEDRHYMKRKEANAFEEQLLKQKMDELHKKLHQVVETSHEDLPASQERSEVNPARMGPSVGSQQELRAPCLPVTYQQTPVNMEKNPREAPPVVPPLANAISAALVSPATSQSIAPPVPLKAQTVTDSMFAVASKDAGCVNKSTHEFKPQSGAEIKEGCETHKVANTSSFHTTPNTSLGMVQATPSKVQPSPTVHTKEALGFIMNMFQAPTLPDISDDKDEWQSLDQNEDAFEAQFQKNVRSSGAWGVNKIISSLSSAFHVFEDGNKENYGLPQPKNKPTGARTFGERSVSRLPSKPKEEVPHAEEFLDDSTVWGIRCNKTLAPSPKSPGDFTSAAQLASTPFHKLPVESVHILEDKENVVAKQCTQATLDSCEENMVVPSRDGKFSPIQEKSPKQALSSHMYSASLLRLSQPAAGGVLTCEAELGVEACRLTDTDAAIAEDPPDAIAGLQAEWMQMSSLGTVDAPNFIVGNPWDDKLIFKLLSGLSKPVSSYPNTFEWQCKLPAIKPKTEFQLGSKLVYVHHLLGEGAFAQVYEATQGDLNDAKNKQKFVLKVQKPANPWEFYIGTQLMERLKPSMQHMFMKFYSAHLFQNGSVLVGELYSYGTLLNAINLYKNTPEKVMPQGLVISFAMRMLYMIEQVHDCEIIHGDIKPDNFILGNGFLEQDDEDDLSAGLALIDLGQSIDMKLFPKGTIFTAKCETSGFQCVEMLSNKPWNYQIDYFGVAATVYCMLFGTYMKVKNEGGECKPEGLFRRLPHLDMWNEFFHVMLNIPDCHHLPSLDLLRQKLKKVFQQHYTNKIRALRNRLIVLLLECKRSRK

Variants of: B1
Details: with ima3_human KPNA4, O00629
ima3_human KPNA4, O00629, sequence (O00629 whole entry): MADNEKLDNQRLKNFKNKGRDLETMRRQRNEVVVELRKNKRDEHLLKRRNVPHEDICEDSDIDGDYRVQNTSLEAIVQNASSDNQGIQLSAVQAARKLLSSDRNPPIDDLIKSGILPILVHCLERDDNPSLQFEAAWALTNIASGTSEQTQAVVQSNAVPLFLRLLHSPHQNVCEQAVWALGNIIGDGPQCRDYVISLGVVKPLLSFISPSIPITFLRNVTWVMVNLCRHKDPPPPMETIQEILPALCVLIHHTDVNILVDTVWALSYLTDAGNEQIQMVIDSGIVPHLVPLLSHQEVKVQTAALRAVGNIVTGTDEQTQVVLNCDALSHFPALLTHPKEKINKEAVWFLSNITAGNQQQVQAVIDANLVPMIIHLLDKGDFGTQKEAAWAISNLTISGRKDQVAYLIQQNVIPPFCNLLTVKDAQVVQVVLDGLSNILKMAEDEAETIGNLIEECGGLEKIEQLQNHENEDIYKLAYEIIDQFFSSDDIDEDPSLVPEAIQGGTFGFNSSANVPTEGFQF

Variant	effect of a mutation on the interaction
R157C	disrupting interaction strength

Variants of: B1
Details: with ima8_human KPNA7, A9QM74
ima8_human KPNA7, A9QM74, sequence (A9QM74 whole entry): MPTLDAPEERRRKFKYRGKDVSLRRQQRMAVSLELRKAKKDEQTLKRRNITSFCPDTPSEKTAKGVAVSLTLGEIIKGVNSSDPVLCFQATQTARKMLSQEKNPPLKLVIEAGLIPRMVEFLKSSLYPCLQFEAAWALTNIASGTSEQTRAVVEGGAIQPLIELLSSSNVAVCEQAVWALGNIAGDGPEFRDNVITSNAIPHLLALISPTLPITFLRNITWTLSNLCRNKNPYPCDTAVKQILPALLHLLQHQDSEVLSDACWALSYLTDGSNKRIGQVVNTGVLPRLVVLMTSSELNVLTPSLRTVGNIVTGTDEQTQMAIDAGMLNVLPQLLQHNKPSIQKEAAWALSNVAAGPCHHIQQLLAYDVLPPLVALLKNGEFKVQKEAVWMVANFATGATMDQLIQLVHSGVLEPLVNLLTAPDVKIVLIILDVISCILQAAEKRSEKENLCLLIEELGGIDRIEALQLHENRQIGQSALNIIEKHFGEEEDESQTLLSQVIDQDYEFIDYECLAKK

Variant	effect of a mutation on the interaction
R157C	disrupting interaction strength

Variants of: B1
Details: with ima3_human KPNA4, O00629
Remark: another data set of the same source

Variant	effect of a mutation on the interaction
R157C	decreasing interaction strength

Variants of: B2
Details: with cskp_human CASK

Variant	effect of a mutation on the interaction
S4L	causing an interaction

Variants of: B3
Details: with mlp3a_human MAP1LC3A

Variant	effect of a mutation on the interaction
L214P	disrupting interaction strength

Variants of: B4
Details: with mlp3b_human MAP1LC3B

Variant	effect of a mutation on the interaction
S492F	increasing interaction strength

Variants of: B4
Details: with gbrl1_human GABARAPL1, Q9H0R8
gbrl1_human GABARAPL1, Q9H0R8, sequence (Q9H0R8 whole entry, looked up): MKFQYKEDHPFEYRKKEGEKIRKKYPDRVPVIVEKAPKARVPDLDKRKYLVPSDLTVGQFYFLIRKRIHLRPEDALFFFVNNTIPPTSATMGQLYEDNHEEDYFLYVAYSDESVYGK

Variant	effect of a mutation on the interaction
S492F	increasing interaction strength
